Source: paper PMC5904407

What was measured:
[1] = biological target: Full-length LapA (FL-LapA; residues 1 to 378), minus N-terminal signal sequence (Legionella pneumophila strain 130b); assay: crystal structure
[2] = biological target: Full-length NttD (FL-NttD; residues 1 to 373), minus N-terminal signal sequence (Legionella pneumophila strain 130b); assay: SEC

| Substance | stoichiometry N [1] | stoichiometry N [2] |
| --- | --- | --- |
| Full-length LapA (FL-LapA; residues 1 to 378), minus N-terminal signal sequence (enzyme) | 2 | – |
| Full-length NttD (FL-NttD; residues 1 to 373), minus N-terminal signal sequence (natural protein) | – | 2 |
